Experimental findings from patent publication US20030068675, “Position dependent recognition of GNN nucleotide triplets by zinc fingers” (published 2003) are described below.

What all share (test): EMSA
What all share (conditions): tags: MBP fusion

One series deals with T1, ZFP SBS#1241 (synthetic).
T1 chain: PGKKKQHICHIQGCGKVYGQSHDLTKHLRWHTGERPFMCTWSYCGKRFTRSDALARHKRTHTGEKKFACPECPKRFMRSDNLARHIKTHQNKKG
The method, boiled down:
(§1)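 Purified ZFP was titrated against labeled double-stranded target (1 nM or lower, at least 10-fold below expected Kd) carrying the natural binding site with flanks. Binding buffer was 10 mM Tris pH 7.5, 100 mM KCl, 1 mM MgCl2, 0.1 mM ZnCl2, 5 mM DTT, 10% glycerol, 0.02% BSA, with equilibration for at least 45 min. Bound and free target were separated on a 10% polyacrylamide gel.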

A further series addresses ZFP SBS#1279 (synthetic). The method, boiled down:
as §1

The target in a further series is ZFP SBS#1267 (synthetic). The gist of the method:
as §1

For the next series, the target named is ZFP SBS#1289 (synthetic). The gist of the method: as §1
Chain of ZFP SBS#1289 (synthetic) (chain, as listed by the source): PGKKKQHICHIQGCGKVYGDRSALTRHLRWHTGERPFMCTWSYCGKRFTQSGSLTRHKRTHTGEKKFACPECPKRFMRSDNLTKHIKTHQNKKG
The target in another series is ZFP SBS#1290 (synthetic). The method, boiled down:
as §1

In another series the target is ZFP SBS#1291 (synthetic). The method, boiled down:
as §1

In another series the target is T2, ZFP SBS#1293 (synthetic).
T2 chain: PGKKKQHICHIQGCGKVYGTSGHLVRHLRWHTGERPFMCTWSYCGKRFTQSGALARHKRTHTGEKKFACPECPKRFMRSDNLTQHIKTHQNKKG
The method, boiled down: as §1

The next series concerns the target ZFP SBS#1294 (synthetic). The method, boiled down: as §1
A further series concerns the target T3, ZFP SBS#1265 (synthetic).
T3 chain: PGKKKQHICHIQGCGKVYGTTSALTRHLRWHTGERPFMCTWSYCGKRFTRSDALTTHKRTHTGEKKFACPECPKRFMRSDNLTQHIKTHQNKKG
The gist of the method:
as §1

Another series has as its target T4, ZFP SBS#1264 (synthetic).
T4 chain: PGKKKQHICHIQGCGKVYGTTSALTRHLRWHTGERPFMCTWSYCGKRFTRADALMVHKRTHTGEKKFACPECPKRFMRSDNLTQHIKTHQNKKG
The gist of the method: as §1

The target of a further series is T5, ZFP SBS#1266 (synthetic).
T5 chain: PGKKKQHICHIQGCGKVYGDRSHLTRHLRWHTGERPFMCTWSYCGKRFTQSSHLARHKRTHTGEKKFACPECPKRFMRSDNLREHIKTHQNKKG
The method, boiled down:
as §1

The target of a further series is T6, ZFP SBS#1288 (synthetic).
T6 chain: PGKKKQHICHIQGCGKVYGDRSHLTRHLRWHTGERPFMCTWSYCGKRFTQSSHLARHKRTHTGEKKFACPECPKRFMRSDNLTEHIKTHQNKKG
The method, boiled down:
as §1

A further series addresses ZFP SBS#1270 (synthetic). The gist of the method: as §1
For another series, the target named is T7, ZFP SBS#1292 (synthetic).
T7 chain: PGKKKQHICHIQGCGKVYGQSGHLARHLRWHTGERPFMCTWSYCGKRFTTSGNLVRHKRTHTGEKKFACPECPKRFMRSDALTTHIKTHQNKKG
The gist of the method: as §1

The next series concerns the target ZFP SBS#1234 (synthetic). The gist of the method: as §1
A further series has as its target ZFP SBS#1236 (synthetic). The method, boiled down: as §1
The target of the next series is T8, ZFP SBS#1278 (synthetic).
T8 chain: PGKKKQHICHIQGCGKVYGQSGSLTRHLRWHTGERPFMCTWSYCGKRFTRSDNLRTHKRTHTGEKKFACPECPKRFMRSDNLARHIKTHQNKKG
The method, boiled down:
as §1

The next series deals with T9, ZFP SBS#1277 (synthetic).
T9 chain: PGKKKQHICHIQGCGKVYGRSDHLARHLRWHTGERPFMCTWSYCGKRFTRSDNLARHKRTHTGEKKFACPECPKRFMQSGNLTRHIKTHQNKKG
The method, boiled down:
as §1

For the next series, the target named is T10, ZFP SBS#1269 (synthetic).
T10 chain: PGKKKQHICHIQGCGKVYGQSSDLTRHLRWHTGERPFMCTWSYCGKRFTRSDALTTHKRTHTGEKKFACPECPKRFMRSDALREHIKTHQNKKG
The gist of the method:
as §1

A further series concerns the target T11, ZFP SBS#1268 (synthetic).
T11 chain: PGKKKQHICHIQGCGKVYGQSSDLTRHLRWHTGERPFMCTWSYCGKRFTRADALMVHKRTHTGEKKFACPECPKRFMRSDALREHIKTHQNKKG
The method, boiled down: as §1

Another series concerns the target T12, ZFP SBS#1282 (synthetic).
T12 chain: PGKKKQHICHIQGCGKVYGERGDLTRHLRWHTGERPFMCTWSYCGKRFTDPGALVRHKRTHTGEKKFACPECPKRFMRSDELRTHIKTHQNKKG
The gist of the method: as §1

The target in a further series is T13, ZFP SBS#1287 (synthetic).
T13 chain: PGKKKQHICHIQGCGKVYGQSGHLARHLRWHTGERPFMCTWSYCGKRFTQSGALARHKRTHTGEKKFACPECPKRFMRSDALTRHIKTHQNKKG
The method, boiled down:
as §1

The target in the next series is T14, ZFP SBS#1271 (synthetic).
T14 chain: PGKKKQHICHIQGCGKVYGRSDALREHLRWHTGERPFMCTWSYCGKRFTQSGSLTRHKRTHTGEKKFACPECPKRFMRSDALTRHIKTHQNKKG
The gist of the method: as §1

Another series concerns the target T15, ZFP SBS#1259 (synthetic).
T15 chain: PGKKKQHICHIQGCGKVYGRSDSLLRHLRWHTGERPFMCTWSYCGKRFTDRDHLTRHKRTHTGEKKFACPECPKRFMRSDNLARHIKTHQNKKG
The gist of the method: as §1

The next series addresses T16, ZFP SBS#1260 (synthetic).
T16 chain: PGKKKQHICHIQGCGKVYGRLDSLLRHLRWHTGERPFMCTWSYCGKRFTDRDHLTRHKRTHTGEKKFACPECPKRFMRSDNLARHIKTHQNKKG
The gist of the method:
as §1

Another series deals with T17, ZFP SBS#504 (synthetic).
T17 chain: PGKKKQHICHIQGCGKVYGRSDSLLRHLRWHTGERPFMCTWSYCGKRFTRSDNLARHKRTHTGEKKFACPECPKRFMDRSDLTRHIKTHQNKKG
The gist of the method:
as §1

In a further series the target is T18, ZFP SBS#440 (synthetic).
T18 chain: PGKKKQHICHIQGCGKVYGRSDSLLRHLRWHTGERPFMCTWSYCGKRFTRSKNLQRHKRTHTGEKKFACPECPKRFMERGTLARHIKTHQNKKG
The gist of the method: as §1

For the next series, the target named is T19, ZFP SBS#503 (synthetic).
T19 chain: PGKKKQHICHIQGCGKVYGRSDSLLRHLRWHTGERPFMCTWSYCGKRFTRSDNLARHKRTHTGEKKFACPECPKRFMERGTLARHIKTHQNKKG
The gist of the method:
as §1

A further series deals with T20, ZFP SBS#505 (synthetic).
T20 chain: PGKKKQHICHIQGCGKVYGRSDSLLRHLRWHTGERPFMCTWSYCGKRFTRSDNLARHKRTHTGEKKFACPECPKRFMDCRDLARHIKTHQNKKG
The method, boiled down: as §1

The target of the next series is ZFP SBS#1275 (synthetic). The method, boiled down: as §1
Chain of ZFP SBS#1275 (synthetic) (chain, as listed by the source): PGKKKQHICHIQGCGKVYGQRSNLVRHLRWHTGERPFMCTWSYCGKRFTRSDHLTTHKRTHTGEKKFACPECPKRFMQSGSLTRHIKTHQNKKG
The next series concerns the target ZFP SBS#1274 (synthetic). The method, boiled down:
as §1

In a further series the target is T21, ZFP SBS#541 (synthetic, UniProt P08047).
T21 chain: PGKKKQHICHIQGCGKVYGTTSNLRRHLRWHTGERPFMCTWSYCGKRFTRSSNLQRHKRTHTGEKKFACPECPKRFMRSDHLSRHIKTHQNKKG
The method, boiled down:
as §1

Another series addresses T22, ZFP SBS#1257 (synthetic, UniProt P08047).
T22 chain: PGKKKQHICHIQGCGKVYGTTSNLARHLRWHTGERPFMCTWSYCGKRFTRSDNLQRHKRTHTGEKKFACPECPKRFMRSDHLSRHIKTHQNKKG
The method, boiled down: as §1

In the next series the target is T23, ZFP SBS#1258 (synthetic, UniProt P08047).
T23 chain: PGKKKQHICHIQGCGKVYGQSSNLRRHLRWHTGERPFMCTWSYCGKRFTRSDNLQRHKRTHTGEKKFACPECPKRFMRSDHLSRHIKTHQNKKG
The gist of the method: as §1

Chain of ZFP SBS#1270 (synthetic) (chain, as listed by the source): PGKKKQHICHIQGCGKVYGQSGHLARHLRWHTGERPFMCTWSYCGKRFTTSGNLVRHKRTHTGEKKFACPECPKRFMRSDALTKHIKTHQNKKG
Chain of ZFP SBS#1294 (synthetic) (chain, as listed by the source): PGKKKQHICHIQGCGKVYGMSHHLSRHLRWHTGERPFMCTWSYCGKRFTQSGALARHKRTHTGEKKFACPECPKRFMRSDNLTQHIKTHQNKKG
Chain of ZFP SBS#1234 (synthetic) (chain, as listed by the source): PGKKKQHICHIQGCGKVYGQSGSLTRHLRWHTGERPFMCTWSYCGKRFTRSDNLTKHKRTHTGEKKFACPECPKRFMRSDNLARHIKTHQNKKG
Chain of ZFP SBS#1267 (synthetic) (chain, as listed by the source): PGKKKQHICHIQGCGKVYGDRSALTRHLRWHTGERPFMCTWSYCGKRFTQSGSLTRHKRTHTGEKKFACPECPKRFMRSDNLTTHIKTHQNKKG
Chain of ZFP SBS#1290 (synthetic) (chain, as listed by the source): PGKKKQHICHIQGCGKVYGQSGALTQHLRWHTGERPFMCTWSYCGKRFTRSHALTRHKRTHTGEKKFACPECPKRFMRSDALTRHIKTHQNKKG
Chain of ZFP SBS#1274 (synthetic) (chain, as listed by the source): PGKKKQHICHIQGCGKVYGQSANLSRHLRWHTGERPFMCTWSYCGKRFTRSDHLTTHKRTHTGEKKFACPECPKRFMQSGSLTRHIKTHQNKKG
Chain of ZFP SBS#1291 (synthetic) (chain, as listed by the source): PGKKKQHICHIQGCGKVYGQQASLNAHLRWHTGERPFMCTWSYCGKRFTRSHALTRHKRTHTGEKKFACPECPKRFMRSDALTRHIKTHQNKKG
Chain of ZFP SBS#1236 (synthetic) (chain, as listed by the source): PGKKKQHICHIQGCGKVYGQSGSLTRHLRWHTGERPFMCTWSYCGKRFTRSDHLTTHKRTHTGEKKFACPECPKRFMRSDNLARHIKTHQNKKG

B1: GAGGTGTCA (dsDNA)
DNA 1: GAGGTGTCA
DNA 2: TGACACCTC
Consider B1, for which the Kd with ZFP SBS#1241 worked out at 0.027 nM; in the series with ZFP SBS#1279 it was 0.025 nM.

B2: TAGGCAGTC (dsDNA)
DNA 1: TAGGCAGTC
DNA 2: GACTGCCTA
Turning to B2, the dissociation constant Kd is 6 nM in the series with ZFP SBS#1267 and 1.37 nM in the series with ZFP SBS#1289.

B3: GTGGTGATA (dsDNA)
DNA 1: GTGGTGATA
DNA 2: TATCACCAC
B3: the Kd with ZFP SBS#1290 is 24.1 nM; in the series with ZFP SBS#1291 it was 20.6 nM.

B4: AAGGTAGGT (dsDNA)
DNA 1: AAGGTAGGT
DNA 2: ACCTACCTT
As to B4, the dissociation constant (Kd) in the series with ZFP SBS#1293 stood at 0.457 nM; with ZFP SBS#1294 it was 2.75 nM.

B5: AAGTTGGTT (dsDNA)
DNA 1: AAGTTGGTT
DNA 2: AACCAACTT
Turning to B5, the Kd with ZFP SBS#1265 was determined as 0.077 nM; with ZFP SBS#1264, 0.21 nM.

B6: CAGGGTGGC (dsDNA)
DNA 1: CAGGGTGGC
DNA 2: GCCACCCTG
In the case of B6, the Kd is 6.1 nM with ZFP SBS#1266 and 4.1 nM with ZFP SBS#1288.

B7: TTGGATGGA (dsDNA)
DNA 1: TTGGATGGA
DNA 2: TCCATCCAA
Regarding B7, the Kd with ZFP SBS#1270 was 0.4 nM; with ZFP SBS#1292, 4.12 nM.

B8: GAGTAGGCA (dsDNA)
DNA 1: GAGTAGGCA
DNA 2: TGCCTACTC
For B8, the dissociation constant (Kd) in the series with ZFP SBS#1234 was 0.101 nM; with ZFP SBS#1236, 0.065 nM; in the series with ZFP SBS#1278, 0.019 nM.

B9: GAAGAGGGG (dsDNA)
DNA 1: GAAGAGGGG
DNA 2: CCCCTCTTC
In the series with ZFP SBS#1277, B9 returned a dissociation constant Kd of 0.421 nM.

B10: CTGTTGGCT (dsDNA)
DNA 1: CTGTTGGCT
DNA 2: AGCCAACAG
Regarding B10, the equilibrium dissociation constant (Kd) in the series with ZFP SBS#1269 came out at 12.3 nM; with ZFP SBS#1268, 1.52 nM.

B11: TCGGTCGCC (dsDNA)
DNA 1: TCGGTCGCC
DNA 2: GGCGACCGA
As for B11, in the series with ZFP SBS#1282, the dissociation constant Kd was found to be 74.1 nM.

B12: GTGGTAGGA (dsDNA)
DNA 1: GTGGTAGGA
DNA 2: TCCTACCAC
Molecule B12 had a Kd in the series with ZFP SBS#1287 of 0.152 nM.

B13: GTGGCACTG (dsDNA)
DNA 1: GTGGCACTG
DNA 2: CAGTGCCAC
In the series with ZFP SBS#1271, B13 came in with a Kd of 0.915 nM.

B14: GAGTGTGTG (dsDNA)
DNA 1: GAGTGTGTG
DNA 2: CACACACTC
On to B14, for which the figures for the Kd with ZFP SBS#1259 and with ZFP SBS#1260 were 1.5 nM and 1.8 nM, respectively.

B15: GCCGAGGTGC (dsDNA)
DNA 1: GCCGAGGTGC
DNA 2: GCACCTCGGC
Consider B15, for which the Kd stood at 25 nM with ZFP SBS#504, 40 nM with ZFP SBS#440, 50 nM in the series with ZFP SBS#503 and 65 nM with ZFP SBS#505.

B16: GCATGGGAA (dsDNA)
DNA 1: GCATGGGAA
DNA 2: TTCCCATGC
With B16, the Kd with ZFP SBS#1275 amounted to 0.326 nM; in the series with ZFP SBS#1274 it was 0.306 nM.

B17: GGGGAGGAT (dsDNA)
DNA 1: GGGGAGGAT
DNA 2: ATCCTCCCC
On to B17, for which the results for the Kd in the series with ZFP SBS#541, with ZFP SBS#1257 and with ZFP SBS#1258 were 3 nM, 1 nM and 2 nM, respectively.
